Test results from patent US9289468B2, “Fusion protein comprising circularly permuted form of trail/Apo2L, coding gene and use thereof” (Beijing Sunbio Biotech Co. Ltd., priority 2011, dated 2016).

Test system: NCI-H460 cells
Assay: Assay of killing activity on lung cancer cell line (crystal violet, IC50)
Assay type: cell-based, human
Details: for Ratio of IC50 of mutants to IC50 of CPT (H460 cells): 20-24 hours, crystal violet; for killing activity compared to that of CPT: based on IC50
Procedure: The NCI-H460 cells (ATCC) were cultured in flasks until logarithmic growth phase, digested with 0.25% trypsin (Amresco), collected by centrifugation (1000 rpm, 5 min), resuspended in RPMI1640 medium (Invitrogen) containing 3% fetal bovine serum (FBS), counted and adjusted to 1.5×10^5/ml cell suspension, added into 96-well culture plates (Nunc) at 100 μl/well, and incubated at 37° C. in 5% CO2 incubator overnight. The sample to be tested was diluted to a certain concentration with 1640 medium containing 3% FBS, and further diluted at 4-fold dilutions (8 dilutions). The supernatant in the culture plate was discarded, and serial dilutions of the sample to be tested was added into the plate at 100 μl/well with a negative control and blank control set aside, incubated at 37° C. under 5% CO2 for 20-24 hours. Following examination under microscope, the supernatant was discarded, each well was added 50 μl 0.05% crystal violet solution (50 mg crystal violet was dissolved in 20 ml anhydrous ethanol, and water was added to the volume of 100 ml, then stored at room temperature) and stained for 3-5 minutes. The crystal violet was carefully washed with flowing water, the remaining water was removed by spin-drying, a destaining solution (50 ml distilled water, 50 ml anhydrous ethanol, and 0.1 ml glacial acetic acid were thoroughly mixed and stored at room temperature) was added at 100 μl/well, then the reading at OD570 was measured on a microplate reader (Bio-Rad 680) (reference wavelength of 630 nm). The inhibitory concentration 50 (IC50) of each sample was calculated by a four-parameter Logistic fitting using Sigmaplot10.0 software. The IC50 for CPT and each mutant of NCPT-1, NCPT-2, and NCPT-3 were calculated, and the activity change of each mutant was represented as a ratio of the IC50 of each mutant to that of CPT (Table 1).

Molecule	Ratio of IC50 of mutants to IC50 of CPT (H460 cells)	killing activity compared to that of CPT
NCPT-1.M3: MG+His3+NCPT-1, SEQ ID NO: 7 (protein, NCPT-1.M3 polypeptide sequence) MGHHHTLSSPNSKNEKALGRKINSWESSRSGHSFLSNLHLRNGELVIHEKGFYYIYSQTYFRFQEEIKENTKNDKQMVQYIYKYTSYPDPILLMKSARNSCWSKDAEYGLYSIYQGGIFELKENDRIFVSVTNEHLIDMDHEASFFGAFLVGGGGGGRVAAHITGTRGRSNT	0.4	significantly higher than that of CPT
NCPT-1.M8: MG+129-134+NCPT-1, SEQ ID NO: 12 (protein, NCPT-1.M8 polypeptide sequence) MGTRGRSNTLSSPNSKNEKALGRKINSWESSRSGHSFLSNLHLRNGELVIHEKGFYYIYSQTYFRFQEEIKENTKNDKQMVQYIYKYTSYPDPILLMKSARNSCWSKDAEYGLYSIYQGGIFELKENDRIFVSVTNEHLIDMDHEASFFGAFLVGGGGGGRVAAHITGTRGRSNT	1.5	significantly decreased compared to that of CPT
NCPT-1.M9: MG+Asn6+NCPT-1, SEQ ID NO: 13 (protein, NCPT-1.M9 polypeptide sequence) MGNNNNNNTLSSPNSKNEKALGRKINSWESSRSGHSFLSNLHLRNGELVIHEKGFYYIYSQTYFRFQEEIKENTKNDKQMVQYIYKYTSYPDPILLMKSARNSCWSKDAEYGLYSIYQGGIFELKENDRIFVSVTNEHLIDMDHEASFFGAFLVGGGGGGRVAAHITGTRGRSNT	3.0	significantly decreased compared to that of CPT
NCPT-1.M5: MG+His6+NCPT-1 with linker GSGGG, SEQ ID NO: 9 (protein, NCPT-1.M5 polypeptide sequence) MGHHHHHHTLSSPNSKNEKALGRKINSWESSRSGHSFLSNLHLRNGELVIHEKGFYYIYSQTYFRFQEEIKENTKNDKQMVQYIYKYTSYPDPILLMKSARNSCWSKDAEYGLYSIYQGGIFELKENDRIFVSVTNEHLIDMDHEASFFGAFLVGGSGGGRVAAHITGTRGRSNT	0.15	significantly higher than that of CPT
NCPT-1.M4: His6+NCPT-1, SEQ ID NO: 8 (protein, NCPT-1.M4 polypeptide sequence) HHHHHHTLSSPNSKNEKALGRKINSWESSRSGHSFLSNLHLRNGELVIHEKGFYYIYSQTYFRFQEEIKENTKNDKQMVQYIYKYTSYPDPILLMKSARNSCWSKDAEYGLYSIYQGGIFELKENDRIFVSVTNEHLIDMDHEASFFGAFLVGGGGGGRVAAHITGTRGRSNT	0.12	significantly higher than that of CPT
NCPT-1.M10: MG+NCPT-1+aa136-141, SEQ ID NO: 14 (protein, NCPT-1.M10 polypeptide sequence) MGTLSSPNSKNEKALGRKINSWESSRSGHSFLSNLHLRNGELVIHEKGFYYIYSQTYFRFQEEIKENTKNDKQMVQYIYKYTSYPDPILLMKSARNSCWSKDAEYGLYSIYQGGIFELKENDRIFVSVTNEHLIDMDHEASFFGAFLVGGGGGGRVAAHITGTRGRSNTLSSPNS	1.2	slightly decreased compared to that of CPT
NCPT-1.M2: MG+NCPT-1+His6, SEQ ID NO: 6 (protein, NCPT-1.M2 polypeptide sequence) MGTLSSPNSKNEKALGRKINSWESSRSGHSFLSNLHLRNGELVIHEKGFYYIYSQTYFRFQEEIKENTKNDKQMVQYIYKYTSYPDPILLMKSARNSCWSKDAEYGLYSIYQGGIFELKENDRIFVSVTNEHLIDMDHEASFFGAFLVGGGGGGRVAAHITGTRGRSNTHHHHHH	0.1	significantly higher than that of CPT
